Experimental findings from US20200140543A1 (Memorial Sloan Kettering, published 2020) are described below.

In the assay the target is T1, Recombinant human A33 protein (human, UniProt Q99795 22-235, limits assumed).
T1 construct: Bought protein, immobilized on the sensor chip by amine coupling; also called human A33 antigen; A33 glycoprotein antigen
T1 sequence (looked up): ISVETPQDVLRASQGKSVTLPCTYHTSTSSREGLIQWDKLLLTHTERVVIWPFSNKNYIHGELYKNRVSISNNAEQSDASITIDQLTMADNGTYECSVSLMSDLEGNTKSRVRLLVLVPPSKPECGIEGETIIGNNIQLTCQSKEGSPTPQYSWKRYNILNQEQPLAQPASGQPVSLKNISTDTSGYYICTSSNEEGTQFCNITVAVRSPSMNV
Kind of assay: SPR, Biacore T100; A33 immobilized by amine coupling, antibody as analyte, bivalent analyte model. As for the experimental part: Binding affinity was measured by Biacore T100.
Biacore T100 Biosensor, CMS sensor chip, and related reagents were purchased from GE Healthcare. Recombinant human A33 protein was purchased from Novoprotein. A BSA-(Y)-DOTA-Bn conjugate was prepared as described (Cheal et al., supra). A33 and DOTA antigens were immobilized using the Amino Coupling kit (GE Healthcare). Purified bispecific antibodies and control antibodies were analyzed, and data were fit to a bivalent analyte model using the Biacore T100 evaluation software as described (Cheal et al., supra).
On the technique in general: In SPR one partner is held on a chip, and binding of the other changes the refractive index at the surface.

B1: huA33-C825 bispecific antibody (humanized A33 IgG1-murine C825 scFv) (bispecific antibody)
heavy: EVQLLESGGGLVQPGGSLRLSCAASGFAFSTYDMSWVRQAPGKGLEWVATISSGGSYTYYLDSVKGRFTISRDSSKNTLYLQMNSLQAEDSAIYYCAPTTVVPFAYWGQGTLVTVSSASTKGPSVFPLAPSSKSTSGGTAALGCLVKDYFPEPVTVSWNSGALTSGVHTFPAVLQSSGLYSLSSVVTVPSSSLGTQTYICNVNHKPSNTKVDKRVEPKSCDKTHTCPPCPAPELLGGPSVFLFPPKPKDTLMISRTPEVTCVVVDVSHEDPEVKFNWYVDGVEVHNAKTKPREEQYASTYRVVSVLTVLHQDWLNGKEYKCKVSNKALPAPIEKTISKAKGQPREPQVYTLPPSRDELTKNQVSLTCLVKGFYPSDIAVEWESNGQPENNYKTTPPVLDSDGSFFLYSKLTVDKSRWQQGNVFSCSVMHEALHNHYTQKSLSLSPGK
light: DIQMTQSPSSLSVSVGDRVTITCKASQNVRTVVAWYQQKPGLAPKTLIYLASNRHTGVPSRFSGSGSGTDFTFTISSLQPEDIATYFCQQHWSYPLTFGQGTKVEVKRTVAAPSVFIFPPSDEQLKSGTASVVCLLNNFYPREAKVQWKVDNALQSGNSQESVTEQDSKDSTYSLSSTLTLSKADYEKHKVYACEVTHQGLSSPVTKSFNRGECGGGGSGGGGSASHVKLQESGPGLVQPSQSLSLTCTVSGFSLTDYGVHWVRQSPGKGLEWLGVIWSGGGTAYNTALISRLNIYRDNSKNQVFLEMNSLQAEDTAMYYCARRGSYPYNYFDAWGCGTTVTVSSGGGGSGGGGSGGGGSQAVVIQESALTTPPGETVTLTCGSSTGAVTASNYANWVQEKPDHCFTGLIGGHNNRPPGVPARFSGSLIGDKAALTIAGTQTEDEAIYFCALWYSDHWVIGGGTRLTVLG
notes: IgG-scFv format: the anti-DOTA-Bn scFv C825 is linked to the carboxyl end of the huA33 light chain; also called anti-A33/anti-DOTA-Bn (metal) bispecific antibody
For orientation: koff means the first-order rate constant of dissociation. A word on the kon: it is a measure of how fast the partners come together. B1: the Kd was 63.5 nM, the koff was 0.00581 s⁻¹ and the kon worked out at 91500 M⁻¹ s⁻¹.

B2: huA33-IgG1 (monospecific humanized antibody A33) (antibody, V domains shown)
VH: EVQLVESGGGLVKPGGSLRLSCAASGFAFSTYDMSWVRQAPGKRLEWVATISSGGSYTYYLDSVKGRFTISRDNAKNSLYLQMNSLRAEDTAVYYCAPTTVVPFAYWGQGTLVTVSS
VL: DIQMTQSQSSLSTSVGDRVTITCKASQNVRTVVAWYQQKPGKSPKTLIYLASNRHTGVPSRFSGSGSGTEFTLTISNVQPEDFADYFCLQHWSYPLTFGSGTKLEIKR
B2: the Kd was determined as 1.71 nM, the koff came out at 0.00105 s⁻¹ and the kon stood at 614000 M⁻¹ s⁻¹.
